Measurements taken from patent US20260069689A1 (Regeneron, published 2026).
Changes are numbered by the printed parent chain.

B1: mAb14255 (antibody)
heavy: not shown
light: QSALTQPASVSGSPGQSITISCTGTSSDVGSYNLVSWYQQHPGKAPKLMIYEDSKRPSGVANPFSGSKSGNTASLTISGLQAEDEADYYCSSYAGSSTWVFGGGTKLTVLGQPKAAPSVTLFPPSSEELQANKATLVCLISDFYPGAVTVAWKADSSPVKAGVETTTPSKQSNNKYAASSYLSLTPEQWKSHRSYSCQVTHEGSTVEKTVAPTECS
B2: mAb14256 (antibody)
heavy: not shown
light: QSVLTQPPSVSGAPGQRVTISCTGSSSNIGTHYDVHWYQQLPGTAPKLLIYGNSNRPSGVPDRFSGSKSGTSASLAITGLQAEDEADYYCQSFDNSLTAPYVFGTGTKVTVLGQPKAAPSVTLFPPSSEELQANKATLVCLISDFYPGAVTVAWKADSSPVKAGVETTTPSKQSNNKYAASSYLSLTPEQWKSHRSYSCQVTHEGSTVEKTVAPTECS
B3: mAb14257 (antibody)
heavy: not shown
light: QSVLTQPPSVSGAPGQRVTISCTGTSSNIGADFDVHWYQQFPGTAPKLLIYGHTNRPSGIPDRFSGSKSGTSASLAITGLQAEDEADYYCQSYDSSLSGSVVFGGGTKLTVLGQPKAAPSVTLFPPSSEELQANKATLVCLISDFYPGAVTVAWKADSSPVKAGVETTTPSKQSNNKYAASSYLSLTPEQWKSHRSYSCQVTHEGSTVEKTVAPTECS
B4: mAb14294 (antibody)
heavy: not shown
light: EIVLTQSPGTLSLSPGERATLSCRASQSVSSSQLAWYQQKPGQAPRLLIYGASSRATGIPDRFSGSGSGTDFTLTISRLEPEDFAVYYCQQYDSFGQGTKLEIKRTVAAPSVFIFPPSDEQLKSGTASVVCLLNNFYPREAKVQWKVDNALQSGNSQESVTEQDSKDSTYSLSSTLTLSKADYEKHKVYACEVTHQGLSSPVTKSFNRGEC
B5: mAb14312 (antibody)
heavy: not shown
light: B3 light with T25S, D32G, F33D, F41L, H53N, T54S, I60V
B6: mAb14315 (antibody)
heavy: not shown
light: EIVLTQSPGTLSLSPGERATLSCRASQSVSSNYLAWYQQKPGQAPRLLIYGASSRATGIPERFSGSGSGTDFTLTISRLEPEDFAVYYCQQYGSSLYTFGQGTKLEIKRTVAAPSVFIFPPSDEQLKSGTASVVCLLNNFYPREAKVQWKVDNALQSGNSQESVTEQDSKDSTYSLSSTLTLSKADYEKHKVYACEVTHQGLSSPVTKSFNRGEC

target: T1, human FcγR3a 176Val allotype receptor (human, UniProt P08637 17-254); assay: cell-based or functional assay

B1 was tested. Which “EC50 (M), Jurkat/CD20/spike” value did it give?
Its value is 1.67e-10 M.

What about the “Fold induction, Jurkat CD20” value of the same binder?
Its value is 1 fold.

And the “Fold induction, Jurkat/CD20/spike” value?
Its value is 9.5 fold.

Which results are given for B2?
EC50 (M), Jurkat/CD20/spike: 4.48e-10 M; Fold induction, Jurkat CD20: 1 fold; Fold induction, Jurkat/CD20/spike: 6.1 fold

For B3, which “EC50 (M), Jurkat/CD20/spike” value is on record?
Its value is 2.39e-10 M.

And the “Fold induction, Jurkat CD20” value?
The value was 1 fold.

What about the “Fold induction, Jurkat/CD20/spike” value of the same binder?
The value was 8.8 fold.

B4 was tested. Which “EC50 (M), Jurkat/CD20/spike” value did it give?
Its value is 6.04e-11 M.

What about the “Fold induction, Jurkat CD20” value of the same binder?
The value was 1 fold.

What about the “Fold induction, Jurkat/CD20/spike” value of the same binder?
Its value is 10.5 fold.

Which results are given for B5?
EC50 (M), Jurkat CD20: 1.84e-08 M; EC50 (M), Jurkat/CD20/spike: 1.68e-10 M; Fold induction, Jurkat CD20: 2 fold; Fold induction, Jurkat/CD20/spike: 7.5 fold

Which results are given for B6?
EC50 (M), Jurkat/CD20/spike: 6.24e-11 M; Fold induction, Jurkat CD20: 1.1 fold; Fold induction, Jurkat/CD20/spike: 9.3 fold

target: SARS-COV-2 RBD-MMH (SARS-CoV-2); assay: SPR 37C, run with dissociation at pH 5.0

Which “RBD.mmh Bound at pH 7.4 (RU)” value does the source give for B1 here?
Its value is 94.1 RU.

What about the koff of the same binder?
The koff was 0.00635 s⁻¹.

What about the t½ of the same binder?
Its t½ is 1.8 min.

Which “RBD.mmh Bound at pH 7.4 (RU)” value does the source give for B2 here?
Its value is 54.1 RU.

And the koff?
The koff was 0.00927 s⁻¹.

And the t½?
Its t½ is 1.2 min.

B3 was tested. Which “RBD.mmh Bound at pH 7.4 (RU)” value did it give?
Its value is 45.2 RU.

What about the koff of the same binder?
Its koff is 0.0172 s⁻¹.

And the t½?
The t½ was 0.7 min.

Which results are given for B4?
RBD.mmh Bound at pH 7.4 (RU): 97.6 RU; koff: 0.000452 s⁻¹; t½: 25.5 min

For B5, which “RBD.mmh Bound at pH 7.4 (RU)” value is on record?
Its value is 96.7 RU.

What about the koff of the same binder?
Its koff is 0.00558 s⁻¹.

What about the t½ of the same binder?
Its t½ is 2.1 min.

With B6 as the binder, how does the “RBD.mmh Bound at pH 7.4 (RU)” value read?
The value was 101 RU.

What about the koff of the same binder?
Its koff is 0.0007 s⁻¹.

What about the t½ of the same binder?
The t½ was 16.5 min.

target: SARS-COV-2 RBD-MMH (SARS-CoV-2); assay: SPR 37C, run with dissociation at pH 7.4

For B1, which “RBD.mmh Bound at pH 7.4 (RU)” value is on record?
Its value is 97.5 RU.

What about the koff of the same binder?
The koff was 0.00493 s⁻¹.

Which “RBD.mmh Bound at pH 7.4 (RU)” value does the source give for B2 here?
The value was 80.2 RU.

What about the koff of the same binder?
The koff was 0.0111 s⁻¹.

For B3, which “RBD.mmh Bound at pH 7.4 (RU)” value is on record?
Its value is 82.3 RU.

And the koff?
The koff was 0.00778 s⁻¹.

B4 was tested. Which “RBD.mmh Bound at pH 7.4 (RU)” value did it give?
Its value is 83.2 RU.

What about the koff of the same binder?
Its koff is 0.00092 s⁻¹.

Which “RBD.mmh Bound at pH 7.4 (RU)” value does the source give for B5 here?
The value was 95.2 RU.

What about the koff of the same binder?
Its koff is 0.000859 s⁻¹.

Which “RBD.mmh Bound at pH 7.4 (RU)” value does the source give for B6 here?
The value was 83.3 RU.

And the koff?
Its koff is 0.00098 s⁻¹.

target: SARS-COV-2 RBD-MMH (SARS-CoV-2); assay: SPR 37C

With B1 as the binder, how does the “t½ Ratio of pH 7.4 to pH 5.0” value read?
Its value is 1.3.

With B2 as the binder, how does the “t½ Ratio of pH 7.4 to pH 5.0” value read?
The value was 0.8.

B3 was tested. Which “t½ Ratio of pH 7.4 to pH 5.0” value did it give?
Its value is 2.1.

Which “t½ Ratio of pH 7.4 to pH 5.0” value does the source give for B4 here?
The value was 0.5.

With B5 as the binder, how does the “t½ Ratio of pH 7.4 to pH 5.0” value read?
The value was 6.4.

For B6, which “t½ Ratio of pH 7.4 to pH 5.0” value is on record?
The value was 0.7.

target: T1, human FcγR3a 176Val allotype receptor; assay: cell-based or functional assay; remark: another data set of the same source

With B1 as the binder, how does the “EC50 (M), Jurkat/CD20/spike” value read?
The value was 1.88e-10 M.

And the “Fold induction, Jurkat CD20” value?
The value was 1.1 fold.

And the “Fold induction, Jurkat/CD20/spike” value?
Its value is 3.2 fold.

What does the source list for B2?
EC50 (M), Jurkat/CD20/spike: 5.75e-10 M; Fold induction, Jurkat CD20: 1.1 fold; Fold induction, Jurkat/CD20/spike: 2 fold

For B3, which “EC50 (M), Jurkat/CD20/spike” value is on record?
The value was 2.63e-10 M.

What about the “Fold induction, Jurkat CD20” value of the same binder?
The value was 1.2 fold.

And the “Fold induction, Jurkat/CD20/spike” value?
The value was 2.2 fold.
